Assay results published in patent US20220396615A1 (published 2022).
Substitutions are numbered along the chain they refer to.

B1: 49F10H6 (antibody, V domains shown)
VH: QVQLQQPGAELVKPGASVKMSCKASGYTFTNYIIHWIKQTPGQGLEWIGAIYPGNGDTSYSQKFKDKATLTADRSSSTAYMQLSSLTSEDSAVYYCARGDAGYSAWFAYWGQGTLVTVSA
VL: NIVLTQSPASLAVSLGQRATISCSASESVDSYGNNFMHWYQQRPGQPPKLLIYLASKLESGVPARFSGSGSRTEFTLTIDPVEAEDAATYYCQQNNEDPLTFGAGTKLELK
B2: 61G1D8 (rat) (antibody, V domains shown)
VH: EVQLLESGGGLVQPGRSMKLSCAASGFTFSSFPMAWVRQTPSKALEWVATISPSGGTSYSRDSVKGRFTISRDNANSTLCLHMDSLKSEDTATYYCLRERIYNTYFDYWGQGVMVTVSS
VL: DIRMTHSPASLSASLGETVSIECLPSEDISSDLAWYQQKPGKSPQLLIYNANTLPNGVPSRFSGSRSGAQYFLKINSLQSEDVATYFCQQYDSYPYTFGTGTKLELK
B3: 29D6B5 (antibody, V domains shown)
VH: QVQLQQSGAELAEPGASVKMSCKASGYNFNNYWMHWVKQGPGQGLEWIGYIDPRTASIYYNQKFKDKATLTADKSSSTAYMQLSSLTSEDSAVYYCARILYGKYDVWGAGTTVIVSS
VL: DVVLTQTPLSLPVSLGNQASISCRSSQSLVDSNGNTYLHWYLQKPGQSPKVLIHKVSNRFSGVPDRFSGSGSGTDFTLKISRVEAEDLGVYFCSQSTHVPPTFGGGTKLEIK
B4: 23A9H3 (antibody, V domains shown)
VH: QVQLQQSGAELAKPGASVKMSCKTSGYTFTNYWMHWVKQRPGQGLEWIGYVIPSTGYTDYNQSFKDKATLTADKSSNTAYMQVNSLTSEDSAVYYCASLLPGFAYWGQGTLVTVSA
VL: B3 VL with L4M, N17D, V51L, H54Y
B5: 41A10B8 (antibody, V domains shown)
VH: EVKLEESGGGLVQPGGSMKLSCAASGFTFSDAWMDWVRQSPDKGLEWVAEIRSKTYHPATYYTKSVRGRFTISRDDSKSSVYLQMNNLGAEDTGIYYCTRPRYYGGYFDYWGQGTTLTVSS
VL: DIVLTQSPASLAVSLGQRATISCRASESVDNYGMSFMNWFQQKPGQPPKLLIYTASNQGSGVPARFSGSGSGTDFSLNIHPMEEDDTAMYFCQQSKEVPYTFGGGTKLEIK
B6: 53A2F9 (rat) (antibody, V domains shown)
VH: QVQLKESGPGLVQPSQTLSLTCTVSGFSLTSHTVSWIRQPPGRGLEWMGKMWSNGDTDYDSAIRSRLSITRDTSKSQVFLKINSLQTEDTAMYFCARYYFSSYGGGYFDYWGQGVMVTVSS
VL: DTVLTQSPALAVSLGQRVTISCRASKSVSTYMHWYQQKSGQQPKLLIYSASNLESGVPSRFSGSGSGTDFTLTIDPVEADDIANYYCQQSDELPDTFGAGTKLELK

These binders were tested against T1, Tag-free human IL6 recombinant protein (GenScript, Cat. No. Z03034) (human, UniProt P05231 30-212) (assay: ELISA).
T1 sequence (P05231 30-212, one chain of several): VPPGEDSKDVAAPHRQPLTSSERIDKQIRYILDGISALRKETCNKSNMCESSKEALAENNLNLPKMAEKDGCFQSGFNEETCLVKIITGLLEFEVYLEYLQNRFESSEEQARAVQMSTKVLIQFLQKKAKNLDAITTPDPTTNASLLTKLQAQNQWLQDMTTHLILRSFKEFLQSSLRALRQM
An EC50 of 0.0153 µg/mL was found for B1 in this work.
An EC50 of 0.0196 µg/mL was found for B2 in this work.
An EC50 of 0.0231 µg/mL was found for B3 in this work.
An EC50 of 0.0163 µg/mL was found for B4 in this work.
An EC50 of 0.018 µg/mL was found for B5 in this work.

What follows are binders tested against T1, Tag-free human IL6 recombinant protein … (assay: SPR (Biacore)).
A Kd of 265 pM was found for B1 in this work.
A Kd of 0.0225 pM was found for B6 in this work.
A Kd of 230 pM was found for B2 in this work.
A Kd of 1950 pM was found for B3 in this work.
A Kd of 8770 pM was found for B4 in this work.
A Kd of 84.7 pM was found for B5 in this work.
